One assay concerns the target T1, I72A (human, UniProt Q9Y286).
T1 construct: clone of the siglec-7 mutation library; also called Siglec-7 I72A
The experiment in a line: flow cytometry on HEK-293T cells expressing the mutant; mean % of wild-type signal (range of duplicates). The protocol:
(§1) Shotgun mutagenesis epitope mapping of anti-siglec-7 antibodies was performed using an alanine-scanning library for the siglec-7 protein. […] Each of residues 19 to 353 was mutated, representing the siglec-7 extracellular domain, most to alanine, while alanine codons were mutated to serine. In total, 335 siglec-7 mutant expression constructs were generated, sequences confirmed, and arrayed into a 384-well plate, one mutant per well.
(§2) Cells were then incubated with MAbs diluted in 10% o normal goat serum (NGS) (Sigma-Aldrich, St. Louis, Mo.). Prior to library screening, primary MAb concentrations were determined using an independent immunofluorescence titration curve against cells expressing wild-type siglec-7 to ensure that signals were within the linear range of detection. MAbs were detected using 3.75 μg/ml AlexaFluor488-conjugated secondary antibody (Jackson immunoResearch Laboratories, Westgrove, Pa.) in 10% NGS. Cells were washed twice with PBS−/− and resuspended in Cellstripper (Cellgro, Manassas, Va.) with 0.1% BSA (Sigma-Aldrich, St. Louis, Mo.). Mean cellular fluorescence was detected using the Intellicyt high throughput flow cytometer (HTFC, Intellicyt, Albuquerque, N. Mex.). MAb reactivities against each mutant clone were calculated relative to wild-type siglec-7 protein reactivity by subtracting the signal from mock-transfected controls, and normalizing to the signal from wild-type siglec-7-transfected controls.
On the technique in general: Flow cytometry measures light scatter and fluorescence of single cells or particles in a stream.

The target in another assay is T2, S47A (human, UniProt Q9Y286).
T2 construct: clone of the siglec-7 mutation library; also called Siglec-7 S47A
T2 sequence (Q9Y286 19-467 S47A limits assumed): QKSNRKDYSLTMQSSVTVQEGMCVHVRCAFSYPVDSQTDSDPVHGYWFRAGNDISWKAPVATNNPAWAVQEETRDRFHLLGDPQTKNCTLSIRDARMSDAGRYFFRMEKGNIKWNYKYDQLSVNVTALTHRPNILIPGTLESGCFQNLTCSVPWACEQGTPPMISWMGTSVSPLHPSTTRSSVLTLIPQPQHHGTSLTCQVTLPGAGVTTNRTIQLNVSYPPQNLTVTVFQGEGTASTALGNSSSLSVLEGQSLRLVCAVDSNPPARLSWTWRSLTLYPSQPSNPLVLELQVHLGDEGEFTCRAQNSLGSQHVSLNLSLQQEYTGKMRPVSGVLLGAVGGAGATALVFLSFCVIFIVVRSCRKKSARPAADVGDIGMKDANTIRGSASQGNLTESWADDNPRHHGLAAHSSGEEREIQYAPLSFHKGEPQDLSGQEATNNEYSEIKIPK
The description is as above. Here is the method: as §1, §2

A further assay has as its target T3, W74A (human, UniProt Q9Y286).
T3 construct: clone of the siglec-7 mutation library; also called Siglec-7 W74A
The description is as above. The protocol: as §1, §2

Another assay has as its target T4, V44A (human, UniProt Q9Y286).
T4 construct: clone of the siglec-7 mutation library; also called Siglec-7 V44A
The description is as above. Here is the method:
as §1, §2

The next assay addresses T5, K104A (human, UniProt Q9Y286).
T5 construct: clone of the siglec-7 mutation library; also called Siglec-7 K104A
The assay is described as above. The protocol: as §1, §2

For a further assay, the target named is T6, M185A (human, UniProt Q9Y286).
T6 construct: clone of the siglec-7 mutation library; also called Siglec-7 M185A
T6 sequence (Q9Y286 19-467 M185A limits assumed): as the sequence (Q9Y286 19-467 S47A limits assumed) above, with A29S, M167A counted along it
Described as above. The protocol: as §1, §2

The target of a further assay is T7, M30A (human, UniProt Q9Y286).
T7 construct: clone of the siglec-7 mutation library; also called Siglec-7 M30A
T7 sequence (Q9Y286 19-467 M30A limits assumed): as the sequence (Q9Y286 19-467 S47A limits assumed) above, with M12A, A29S counted along it
Described as above. The protocol:
as §1, §2

Another assay has as its target T8, R124A (human, UniProt Q9Y286).
T8 construct: clone of the siglec-7 mutation library; also called Siglec-7 R124A
The assay is described as above. The protocol: as §1, §2

The next assay addresses T9, N81A (human, UniProt Q9Y286).
T9 construct: clone of the siglec-7 mutation library; also called Siglec-7 N81A
The assay is described as above. The protocol:
as §1, §2

The target of another assay is T10, T107A (human, UniProt Q9Y286).
T10 construct: clone of the siglec-7 mutation library; also called Siglec-7 T107A
T10 sequence (Q9Y286 19-467 T107A limits assumed): as the sequence (Q9Y286 19-467 S47A limits assumed) above, with A29S, T89A counted along it
The description is as above. The protocol:
as §1, §2

Another assay addresses T11, Y50A (human, UniProt Q9Y286).
T11 construct: clone of the siglec-7 mutation library; also called Siglec-7 Y50A
The description is as above. Here is the method:
as §1, §2

The next assay addresses T12, T103A (human, UniProt Q9Y286).
T12 construct: clone of the siglec-7 mutation library; also called Siglec-7 T103A
The assay is described as above. Here is the method:
as §1, §2

A further assay has as its target T13, R45A (human, UniProt Q9Y286).
T13 construct: clone of the siglec-7 mutation library; also called Siglec-7 R45A
The assay is described as above. The protocol: as §1, §2

The target of another assay is T14, F48A (human, UniProt Q9Y286).
T14 construct: clone of the siglec-7 mutation library; also called Siglec-7 F48A
T14 sequence (Q9Y286 19-467 F48A limits assumed): as the sequence (Q9Y286 19-467 S47A limits assumed) above, with A29S, F30A counted along it
The description is as above. Here is the method:
as §1, §2

The target of assay [1] is human Siglec-7 expressed on human cells (primary monocytes, dendritic cells, macrophages, NK cells, microglia, U937 cells, human cells of humanized mice) (human) (UniProt Q9Y286). The experiment in a line: FACS, human primary monocytes; isotype control (background).
Sequence of human Siglec-7 expressed on human cells (primary monocytes, dendritic cells, macrophages, NK cells, microglia, U937 cells, human cells of humanized mice) (human) (Q9Y286 19-467): as the sequence (Q9Y286 19-467 S47A limits assumed) above, with A29S counted along it
Assay [2] shares this target. The experiment in a line: FACS, human primary dendritic cells; isotype control (background).
Assay [3] has the same target. The experiment in a line: cell-based or functional assay.
Assay [4] has as its target T15, Siglec-7-Fc (plate immobilized) (human, UniProt Q9Y286 19-357, limits assumed).
T15 construct: also called Siglec-7-Fc protein; immobilized Siglec-7; not shown: Fc part
The experiment in a line: RBC solid adhesion assay, plate-coated Siglec-7-Fc; isotype control.

Assay [5] has as its target human Siglec-7 expressed on human cells (primary monocytes, dendritic cells, macrophages, NK cells, microglia, U937 cells, human cells of humanized mice) (human) (UniProt Q9Y286). The experiment in a line: FACS, human primary macrophages; isotype control (background).
For assay [6], the target named is T15, Siglec-7-Fc (plate immobilized). Nature of the assay: RBC solid adhesion assay, plate-coated Siglec-7-Fc, antibody 0.5 or 1.0 ug/ml; % of RBC binding without antibody. Here is the method: To determine which antibodies compete with ligand binding to Siglec-7, a red blood cell (RBC) solid adhesion assay was carried out in accordance with standard protocols (Kelm et al., Current Biology, 1994). Red blood cells are highly decorated with glycoproteins containing sialic acids: therefore, the ability of an antibody to block RBC binding to immobilized Siglec-7 can be used to determine ligand interference. Briefly, 5 μg/ml Siglec-7-Fc was coated overnight at RT in 96 well Immunolon plates, then washed with PBS, blocked for one hour with binding buffer (PBS containing %0.25 BSA 1 mM CaCl₂), Siglec-7 antibodies (0.5 μg/ml or 1.0 μg/ml) were bound for one hour at RT with gentle rocking. After removal of unbound antibody, red blood cells were added to each well at a concentration of 3.0×10⁶ cells per ml and incubated at RT for one hour. Unbound RBCs were then carefully washed off 3× with PBS, and water was added to each well for hypotonic lysis of bound RBCs. The plate was transferred to −80° C. for 10 minutes, followed by 37° C. for 15 minutes. Bound RBCs were detected by peroxidase activity, followed by 2N sulfuric acid to stop the reaction. Signal was detected at […]. Data was calculated as a percent of RBC binding to plate bound Siglec-7-Fc in the absence of antibody.

In assay [7] the target is human Siglec-7 expressed on human cells (primary monocytes, dendritic cells, macrophages, NK cells, microglia, U937 cells, human cells of humanized mice) (human) (UniProt Q9Y286). The experiment in a line: FACS, human primary dendritic cells, 10 ug/ml mAb.
The target is the same in assay [8]. Nature of the assay: FACS, human primary monocytes, 10 ug/ml mAb.
For assay [9] the target is unchanged. Nature of the assay: FACS, human primary macrophages, 10 ug/ml mAb.

T15 sequence (Q9Y286 19-357 limits assumed): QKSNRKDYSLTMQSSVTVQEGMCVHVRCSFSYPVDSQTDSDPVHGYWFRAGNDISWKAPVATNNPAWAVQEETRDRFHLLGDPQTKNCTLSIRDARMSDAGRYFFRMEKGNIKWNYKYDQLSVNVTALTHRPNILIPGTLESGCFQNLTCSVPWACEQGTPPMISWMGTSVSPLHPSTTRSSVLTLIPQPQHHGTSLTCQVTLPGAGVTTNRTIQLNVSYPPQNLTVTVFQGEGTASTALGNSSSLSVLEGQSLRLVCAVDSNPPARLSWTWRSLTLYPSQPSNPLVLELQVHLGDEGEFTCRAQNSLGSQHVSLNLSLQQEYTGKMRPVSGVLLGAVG
T4 sequence (Q9Y286 19-467 V44A limits assumed): as the sequence (Q9Y286 19-467 S47A limits assumed) above, with V26A, A29S counted along it
T11 sequence (Q9Y286 19-467 Y50A limits assumed): as the sequence (Q9Y286 19-467 S47A limits assumed) above, with A29S, Y32A counted along it
T12 sequence (Q9Y286 19-467 T103A limits assumed): as the sequence (Q9Y286 19-467 S47A limits assumed) above, with A29S, T85A counted along it
T5 sequence (Q9Y286 19-467 K104A limits assumed): as the sequence (Q9Y286 19-467 S47A limits assumed) above, with A29S, K86A counted along it
T3 sequence (Q9Y286 19-467 W74A limits assumed): as the sequence (Q9Y286 19-467 S47A limits assumed) above, with A29S, W56A counted along it
T8 sequence (Q9Y286 19-467 R124A limits assumed): as the sequence (Q9Y286 19-467 S47A limits assumed) above, with A29S, R106A counted along it
T1 sequence (Q9Y286 19-467 I72A limits assumed): as the sequence (Q9Y286 19-467 S47A limits assumed) above, with A29S, I54A counted along it
T9 sequence (Q9Y286 19-467 N81A limits assumed): as the sequence (Q9Y286 19-467 S47A limits assumed) above, with A29S, N63A counted along it
T13 sequence (Q9Y286 19-467 R45A limits assumed): as the sequence (Q9Y286 19-467 S47A limits assumed) above, with R27A, A29S counted along it

S7.7 MAb (antibody): the Binding Reactivity (% WT) was 101 % WT with I72A; 118 % WT with S47A; 83.7 % WT in the assay with W74A; 89.3 % WT with V44A; 115 % WT with K104A; 74.3 % WT with M185A. Also, the Binding Reactivity (% WT) with M30A is 100 % WT; with R124A, 115 % WT; with N81A, 5.6 % WT; with T107A it was 129 % WT; with Y50A, 142 % WT; with T103A, 106 % WT. Further, the Binding Reactivity (% WT) with R45A stood at 126 % WT; with F48A, 158 % WT.
Turning to 6-434 MAb (antibody), the Binding Reactivity (% WT) is 64.2 % WT with I72A; 101 % WT with S47A; 74.9 % WT with W74A; 68 % WT with V44A; 83.8 % WT with K104A; 69.3 % WT in the assay with M185A. Besides, the Binding Reactivity (% WT) was determined as 84.8 % WT in the assay with M30A; 126 % WT with R124A; 112 % WT in the assay with N81A; 66.8 % WT in the assay with T107A; 97.9 % WT in the assay with Y50A; 77.5 % WT with T103A. The results for the Binding Reactivity (% WT) with R45A and in the assay with F48A were 112 % WT and 113 % WT, respectively.
For mIgG1 isotype control antibody, in assay [1], the % Positive came to 10.6% and the MFI is 115. In [2], the % Positive was 2.8% and the MFI was determined as 83. Also, in assay [3], the Percent Siglec-7 Surface Expression, DCs was determined as 101%; the Percent Siglec-7 Surface Expression, Macrophages is 100%; the Percent Siglec-7 Surface Expression, Microglia stood at 88.7%; the Percent Siglec-7 Surface Expression, Monocytes amounted to 96.2%. In assay [3], this substance showed a Percent Siglec-7 Surface Expression, NK cells of 99.6% and a Percent Siglec-7 Surface Expression, U937 cells of 102%. In assay [4], this substance displayed a Percent RBC Binding to Siglec-7 of 107%. Further, in [5], the % Positive worked out at 21.7% and the MFI was 368.
“commercially available anti-Siglec-7 antibody Mab1138 (R&D Systems; Cat. No. MAB 1138)” yielded a Percent RBC Binding to Siglec-7 in [6] of 97.1%. Further, in assay [7], the % Positive was 73.9% and the MFI amounted to 1450. Besides, in assay [8], the % Positive is 19.9% and the MFI was 175. In assay [3], this substance registered a Percent Siglec-7 Surface Expression, DCs of 96.7%; a Percent Siglec-7 Surface Expression, Macrophages of 98.7%; a Percent Siglec-7 Surface Expression, Microglia of 80.2%; a Percent Siglec-7 Surface Expression, Monocytes of 99.6%. Moreover, in [3], the Percent Siglec-7 Surface Expression, NK cells worked out at 103% and the Percent Siglec-7 Surface Expression, U937 cells stood at 98.2%. In [9], the % Positive came to 98.6% and the MFI came to 4220.
In assay [1], mIgG2b isotype control antibody yielded a % Positive of 13.9% and an MFI of 128. Moreover, in [2], the % Positive came out at 5% and the MFI was determined as 130. Further, in [3], the Percent Siglec-7 Surface Expression, DCs is 100%; the Percent Siglec-7 Surface Expression, Macrophages is 100%; the Percent Siglec-7 Surface Expression, Microglia came to 88.8%; the Percent Siglec-7 Surface Expression, Monocytes is 96.2%. In [3], this substance registered a Percent Siglec-7 Surface Expression, NK cells of 101% and a Percent Siglec-7 Surface Expression, U937 cells of 99.3%. Also, the Percent RBC Binding to Siglec-7 in assay [4] was 102%. In assay [5], this substance registered a % Positive of 79.5% and an MFI of 2060.

Values taken from patent publication US20200277374A1 (Alector, published 2020).
